Assay results from patent publication US20020032310A1.

Biological target: KGFR (keratinocyte growth factor receptor, KGFR-type isoform of the FGFR2/BEK gene) (mouse) (UniProt P21803)
Test: cell-based or functional assay

Transforming Activity: 14000 ffu/pmol DNA
Substance: KGF secreted from NIH 3T3 cells (from UniProt P36363 32-194) (ligand)
